# In patent US20140271682, “HUMAN HOMEOBOX GENE VENTX AND MACROPHAGE TERMINAL DIFFERENTIATION AND ACTIVATION, COMPOSITIONS AND METHODS THEREOF” (published 2014):
# T1: VentX (Homo sapiens, UniProt O95231 SEQ:1-258)
# T1 sequence: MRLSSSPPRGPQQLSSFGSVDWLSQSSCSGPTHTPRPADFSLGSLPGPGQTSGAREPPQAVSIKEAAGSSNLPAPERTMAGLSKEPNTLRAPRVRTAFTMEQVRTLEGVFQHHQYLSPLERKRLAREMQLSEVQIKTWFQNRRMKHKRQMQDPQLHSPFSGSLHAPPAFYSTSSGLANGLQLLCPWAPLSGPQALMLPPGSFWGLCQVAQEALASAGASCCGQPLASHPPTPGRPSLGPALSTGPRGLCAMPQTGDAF
# Molecular target: T1, VentX
# Test: EMSA; fluorescence-based EMSA kit
# Conditions: tags: pCS2-VentX, TNT reticulocyte lysate
# Protocol: Lysate Systems, Promega). […] Gel shift assay was performed with a fluorescence-based Electrophoretic Mobility Shift Assay (EMSA) Kit from Invitrogen following the manufacturer's instruction. The following double-stranded oligonucleotides were used in the experiments: 5′-[…]-3′ (wild type M-CSFR probe, putative homeodomain binding sequence is in bold and underlined); 5′-[…]-3′ (mutant M-CSFR);
binder,measurement,value
M-CSFR promoter probe wild type (dsDNA) DNA 1: CTGCGTCTCTAAAATAATAATAATAAATTTTTAAAAGATATGC DNA 2: GCATATCTTTTAAAAATTTATTATTATTATTTTAGAGACGCAG,binding result,binds
